OSER assay in live HeLa cells (CytERM fusion): whorl-free cells data for one substance are collected here from doi:10.1101/2023.12.05.570295.

The target of this assay is mKate2-K67R/R197H, named Diogenes.

For the substance mKate2-K67R/R197H, named Diogenes, the OSER assay in live HeLa cells (CytERM fusion): whorl-free cells was 87%.
